This note sets out measurements from paper PMC7781312 (bioRxiv, 2021).

The experiment has as its target SARS-CoV-2 2P S ectodomain trimer (SARS-CoV-2 (YP_009724390), UniProt P0DTC2, stabilised). Kind of experiment: BLI. (In general: In BLI a coated tip is dipped into the sample, and binding shifts an interference pattern.)

B1: B6 monoclonal antibody (recombinant IgG with human constant regions) (antibody, V domains shown)
VH: EVQLQQSGPVLVKPGASVRMSCKASGYTITDYYLNWVKQSHGKSLEWLGVLNPYSGGSLYSQTFKGKATLTVDRSSSTAYLELNSLTSEDSAVYYCARQLGRGNGLDYWGQGTSVTVSS
VL: NIMMTQSPSSLAVSAGEKVTMSCKSSQSVLHSSDQKNYLAWYQQKPGQSPKLLIYWASTRESGVPDRFTGSGSGTDFTLTISSVQAEDLAVYFCHQYLSSYTFGGGTKLEIK
With B1, the binding result is listed as “binds”.
